The values below come from the supplement of paper PMC9112550, “Optimization of the antimicrobial peptide Bac7 by deep mutational scanning” (BMC Biology, 2022).

The test system of the data set is Escherichia coli TOP10. As to the kind of experiment: shrunken log2 fold change of peptide-encoding DNA abundance (4.5 h post-induction vs induction); higher = less antimicrobial activity (less host growth inhibition). To be noted: time post-induction: 4.5 h; library: site-saturation at positions 5, 18, 19, 20.
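Also: peptides expressed intracellularly from a pBAD plasmid library in pooled LB shake-flask culture, induced with 0.3% L-arabinose, DNA abundance read by NGS, three biological replicates, DESeq2 with apeglm shrinkage.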

As to RRIRMRPPRLPRPRPRPMGSPRP, the “shrunken log2 fold change” value is -0.0199. As for RRIRTRPPRLPRPRPRPQVWPRP, the figure is 0.112; as for RRIRKRPPRLPRPRPRPRITPRP, 0.227; as for RRIRPRPPRLPRPRPRPVGIPRP, 0.0618. For the sequence RRIRHRPPRLPRPRPRPSMQPRP, the “shrunken log2 fold change” value is -0.124.

Turning to RRIRERPPRLPRPRPRPSDKPRP, the “shrunken log2 fold change” value is -0.982. Next, RRIRYRPPRLPRPRPRPFDAPRP: -0.485; RRIRYRPPRLPRPRPRPQQQPRP: 0.00548; RRIRYRPPRLPRPRPRPMILPRP: -0.287. As to RRIRVRPPRLPRPRPRPQFQPRP, the “shrunken log2 fold change” value was -0.0795. Next, RRIRVRPPRLPRPRPRPETWPRP: 0.0351; RRIRLRPPRLPRPRPRPHTPPRP: -0.295. Next, RRIRARPPRLPRPRPRPVAIPRP: 0.111. As for RRIRVRPPRLPRPRPRPHQGPRP, the figure is 0.105; as for RRIRCRPPRLPRPRPRPKLGPRP, 0.0989; as for RRIRRRPPRLPRPRPRPELIPRP, 0.0314. Turning to RRIRVRPPRLPRPRPRPTMWPRP, the “shrunken log2 fold change” value was determined as 0.267. Take RRIRIRPPRLPRPRPRPGAIPRP: the “shrunken log2 fold change” value was -0.0678. As for RRIRVRPPRLPRPRPRPHVRPRP, the figure is -0.0188. With RRIRFRPPRLPRPRPRPWRCPRP, the “shrunken log2 fold change” value was found to be 0.174. In the case of RRIRTRPPRLPRPRPRPDLWPRP, the “shrunken log2 fold change” value was 0.27. Next, RRIRDRPPRLPRPRPRPASSPRP: 0.0229; RRIRRRPPRLPRPRPRPTVPPRP: 0.0694; RRIRPRPPRLPRPRPRPQNTPRP: -0.407. Consider RRIRPRPPRLPRPRPRPSEYPRP, for which the “shrunken log2 fold change” value is -0.366.

On to RRIRYRPPRLPRPRPRPRCPPRP, for which the “shrunken log2 fold change” value was -0.167. Next, RRIRRRPPRLPRPRPRPMVCPRP: 0.0487; RRIRVRPPRLPRPRPRPIMGPRP: 0.0179. Next, RRIRHRPPRLPRPRPRPSALPRP: -0.243; RRIRMRPPRLPRPRPRPGEAPRP: 2.18; RRIRIRPPRLPRPRPRPSMYPRP: -1.53. As for RRIRDRPPRLPRPRPRPKVFPRP, the figure is 0.0612; as for RRIRNRPPRLPRPRPRPRAYPRP, 0.0694. Turning to RRIRNRPPRLPRPRPRPTLYPRP, the “shrunken log2 fold change” value is -0.3. As for RRIRPRPPRLPRPRPRPYDPPRP, the figure is -0.301.

For the sequence RRIRWRPPRLPRPRPRPMCCPRP, the “shrunken log2 fold change” value came out at 0.181. Next, RRIRCRPPRLPRPRPRPFNRPRP: -0.466; RRIRLRPPRLPRPRPRPDNRPRP: -0.0526. As for RRIRMRPPRLPRPRPRPSMDPRP, the figure is 0.0865; as for RRIRCRPPRLPRPRPRPDDCPRP, 0.112. As for RRIRTRPPRLPRPRPRPCQWPRP, the figure is -0.107. Regarding RRIRLRPPRLPRPRPRPLPYPRP, the “shrunken log2 fold change” value was 0.514. Next, RRIRSRPPRLPRPRPRPEPGPRP: 0.197; RRIRWRPPRLPRPRPRPMLLPRP: 0.259; RRIRKRPPRLPRPRPRPEEWPRP: -0.0212. Next, RRIRYRPPRLPRPRPRPNMYPRP: -0.411.
